These results are taken from paper PMC11959585.

Experiment [1] deals with His-tagged transcriptional activation domain of the tumor suppressor protein p53 (UniProt P04637). Briefly: solution-phase LSPR peak shift of nanoparticles (UV–vis); hTAD ([…]) immobilised by its His-tag on NTA-Ni AgDNP@Au nanobiosensors (~0.025 nM), NCBD (0.27 μM) added; 10 mM Tris, 30 mM NaCl, 0.025 wt % Tween 20, pH 7.5; near equilibrium (25 min).
Experiment [2] shares this target. Briefly: solution-phase LSPR peak shift of nanoparticles (UV–vis); hTAD ([…]) immobilised by its His-tag on NTA-Ni AgDNP@Au nanobiosensors (~0.025 nM), NCBD (0.27 μM) or BSA ([…]) added; 10 mM Tris, 150 mM NaCl, 0.025 wt % Tween 20, pH 7.5; near equilibrium (25 min).
Experiment [3] has the same target. As to the kind of experiment: solution-phase LSPR peak shift of nanoparticles (UV–vis); hTAD ([…]) immobilised by its His-tag on NTA-Ni AgDNP@Au nanobiosensors (~0.025 nM), NCBD (0.27 μM) added; 10 mM Tris, 10 mM NaCl, 0.025 wt % Tween 20, pH 7.5; nanoparticles aggregated after several minutes.
The target of experiment [4] is PEX14 16-80 (Homo sapiens) (UniProt O75381). As to the kind of experiment: SPR. The note with it: cited from earlier work.
PEX14 16-80 (Homo sapiens), sequence (O75381 16-80): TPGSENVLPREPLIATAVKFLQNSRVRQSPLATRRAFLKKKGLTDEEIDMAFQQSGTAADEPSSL
Experiment [5] shares this target. As to the kind of experiment: ITC. Conditions: cited from earlier work.

His-tagged transcriptional activation domain of the tumor suppressor protein p53, sequence (P04637 whole entry, the tested form may be a part): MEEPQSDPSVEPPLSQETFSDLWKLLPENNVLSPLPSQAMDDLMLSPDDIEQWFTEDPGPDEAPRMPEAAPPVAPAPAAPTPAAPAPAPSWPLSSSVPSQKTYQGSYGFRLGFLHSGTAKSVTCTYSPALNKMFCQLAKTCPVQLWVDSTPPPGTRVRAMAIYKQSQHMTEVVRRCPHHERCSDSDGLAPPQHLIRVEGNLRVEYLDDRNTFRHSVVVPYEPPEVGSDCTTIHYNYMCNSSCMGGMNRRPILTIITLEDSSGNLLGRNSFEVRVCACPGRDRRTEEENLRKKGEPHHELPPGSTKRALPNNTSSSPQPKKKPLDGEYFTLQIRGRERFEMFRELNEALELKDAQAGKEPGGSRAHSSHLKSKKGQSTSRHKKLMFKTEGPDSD

On to “nuclear receptor coactivator binding domain of the CREB-binding protein (from UniProt Q92793 1-2442) (domain or fragment)”, for which, in experiment [1], the second LSPR peak redshift (30 mM NaCl) turned out to be 3.2 nm. In addition, in experiment [2], the second LSPR peak redshift (150 mM NaCl) turned out to be 1 nm. Moreover, the LSPR peak redshift after addition of NCBD (10 mM NaCl) in experiment [3] came out at 6.2 nm.
What is called Kd is the equilibrium constant for the complex coming apart. Take PEX5 1-113 (from UniProt P50542): the Kd is 0.087 µM in experiment [4] and 0.157 µM in experiment [5].
As to PEX5 W4 motif W4 (from UniProt P50542), the dissociation constant (Kd) in experiment [5] is 6.3 µM.
